Assay results as given in the supplement of paper PMC10065799, “High-throughput profiling of sequence recognition by tyrosine kinases and SH2 domains using bacterial peptide display” (eLife, 2023).

Experiments:
[1] = molecular target: c-Src SH2; assay: SH2 binding enrichment of the phosphorylated peptide, bacterial display (enrichment ratio); higher = better substrate or ligand; peptides without Tyr show the background
[2] = molecular target: Grb2 SH2 (UniProt P62993); assay: as above
[3] = molecular target: SHP2-C SH2; assay: as above
[4] = system: Fer (mouse); assay: phosphorylation enrichment, bacterial display (enrichment ratio); higher = better substrate or ligand; peptides without Tyr show the background
[5] = molecular target: FGFR3 (UniProt P22607); assay: as above
Chain of FGFR3 (P22607 whole entry, looked up): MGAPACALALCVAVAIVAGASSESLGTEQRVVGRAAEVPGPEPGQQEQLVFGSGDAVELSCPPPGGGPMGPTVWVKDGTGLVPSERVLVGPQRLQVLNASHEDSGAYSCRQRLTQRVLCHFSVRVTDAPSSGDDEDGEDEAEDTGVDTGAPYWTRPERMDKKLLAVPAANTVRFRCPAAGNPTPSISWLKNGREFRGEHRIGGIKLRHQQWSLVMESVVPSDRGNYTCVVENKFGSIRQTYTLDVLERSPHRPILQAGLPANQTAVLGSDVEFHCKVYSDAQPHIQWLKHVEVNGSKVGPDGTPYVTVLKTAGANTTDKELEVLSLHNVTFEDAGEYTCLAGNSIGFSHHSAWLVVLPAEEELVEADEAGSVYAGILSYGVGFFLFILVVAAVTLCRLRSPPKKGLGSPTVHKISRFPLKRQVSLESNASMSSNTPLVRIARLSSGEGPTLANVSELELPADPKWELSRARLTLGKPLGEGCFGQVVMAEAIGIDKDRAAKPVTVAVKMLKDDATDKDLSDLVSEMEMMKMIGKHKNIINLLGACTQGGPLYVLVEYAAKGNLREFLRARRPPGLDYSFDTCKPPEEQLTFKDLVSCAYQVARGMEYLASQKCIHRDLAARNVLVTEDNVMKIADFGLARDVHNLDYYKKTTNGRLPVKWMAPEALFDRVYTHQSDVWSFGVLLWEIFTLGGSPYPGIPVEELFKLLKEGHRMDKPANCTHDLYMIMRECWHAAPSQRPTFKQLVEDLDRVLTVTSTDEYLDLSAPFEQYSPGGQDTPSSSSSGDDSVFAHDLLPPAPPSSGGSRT

[6] = molecular target: EPHB1 (UniProt P54762); assay: as above
Chain of EPHB1 (P54762 whole entry, looked up): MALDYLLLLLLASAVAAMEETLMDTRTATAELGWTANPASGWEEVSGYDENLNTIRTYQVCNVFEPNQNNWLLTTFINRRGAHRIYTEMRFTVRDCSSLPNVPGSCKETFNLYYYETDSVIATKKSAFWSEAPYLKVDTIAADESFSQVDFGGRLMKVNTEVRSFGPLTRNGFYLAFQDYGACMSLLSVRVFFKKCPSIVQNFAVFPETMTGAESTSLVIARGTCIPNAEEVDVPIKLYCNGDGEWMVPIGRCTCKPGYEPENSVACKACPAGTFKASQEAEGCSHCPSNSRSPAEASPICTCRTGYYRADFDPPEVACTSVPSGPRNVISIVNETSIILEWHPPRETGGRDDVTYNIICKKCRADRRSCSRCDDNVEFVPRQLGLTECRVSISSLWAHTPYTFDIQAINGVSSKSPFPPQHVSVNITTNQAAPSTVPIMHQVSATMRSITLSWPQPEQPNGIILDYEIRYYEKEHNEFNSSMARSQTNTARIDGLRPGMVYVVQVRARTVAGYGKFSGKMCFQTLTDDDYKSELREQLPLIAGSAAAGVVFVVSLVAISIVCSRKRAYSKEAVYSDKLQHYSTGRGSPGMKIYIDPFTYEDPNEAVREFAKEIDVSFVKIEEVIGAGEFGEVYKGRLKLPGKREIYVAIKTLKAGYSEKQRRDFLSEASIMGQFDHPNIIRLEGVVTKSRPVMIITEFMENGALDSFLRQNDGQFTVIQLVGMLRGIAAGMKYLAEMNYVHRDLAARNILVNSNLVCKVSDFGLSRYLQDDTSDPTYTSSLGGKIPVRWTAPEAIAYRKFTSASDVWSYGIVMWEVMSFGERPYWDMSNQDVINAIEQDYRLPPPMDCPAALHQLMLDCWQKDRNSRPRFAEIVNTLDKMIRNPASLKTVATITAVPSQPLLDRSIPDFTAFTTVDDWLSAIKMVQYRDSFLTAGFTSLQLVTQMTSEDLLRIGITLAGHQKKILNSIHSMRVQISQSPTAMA

[7] = molecular target: MERTK (UniProt Q12866); assay: as above
[8] = molecular target: Jak2 (UniProt O60674); assay: as above
[9] = molecular target: Fes (UniProt P07332); assay: as above
Chain of Fes (P07332 whole entry, looked up): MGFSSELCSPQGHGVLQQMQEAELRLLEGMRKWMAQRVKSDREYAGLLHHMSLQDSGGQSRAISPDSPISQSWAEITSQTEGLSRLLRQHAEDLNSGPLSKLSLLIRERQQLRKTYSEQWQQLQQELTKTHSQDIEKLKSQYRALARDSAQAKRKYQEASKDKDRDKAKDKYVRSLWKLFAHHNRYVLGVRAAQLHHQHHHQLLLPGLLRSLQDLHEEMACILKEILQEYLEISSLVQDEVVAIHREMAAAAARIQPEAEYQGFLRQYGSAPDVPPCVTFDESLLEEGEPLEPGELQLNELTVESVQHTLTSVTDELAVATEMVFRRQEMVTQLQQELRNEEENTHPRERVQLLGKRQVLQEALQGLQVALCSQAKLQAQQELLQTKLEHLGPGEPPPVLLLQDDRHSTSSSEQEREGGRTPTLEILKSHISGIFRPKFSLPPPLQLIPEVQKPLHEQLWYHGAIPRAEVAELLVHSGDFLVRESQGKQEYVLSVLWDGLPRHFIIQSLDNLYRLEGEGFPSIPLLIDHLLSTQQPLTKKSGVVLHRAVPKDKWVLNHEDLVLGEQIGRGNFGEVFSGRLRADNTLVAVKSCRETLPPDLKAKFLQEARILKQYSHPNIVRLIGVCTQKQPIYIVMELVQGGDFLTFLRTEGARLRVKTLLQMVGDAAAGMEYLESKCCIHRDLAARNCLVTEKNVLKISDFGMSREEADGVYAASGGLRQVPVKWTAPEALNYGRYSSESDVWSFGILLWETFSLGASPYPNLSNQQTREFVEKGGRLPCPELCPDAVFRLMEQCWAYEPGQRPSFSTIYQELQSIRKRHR

[10] = system: AncSZ; assay: as above
[11] = molecular target: Hck (UniProt P08631); assay: as above
Chain of Hck (P08631 whole entry, looked up): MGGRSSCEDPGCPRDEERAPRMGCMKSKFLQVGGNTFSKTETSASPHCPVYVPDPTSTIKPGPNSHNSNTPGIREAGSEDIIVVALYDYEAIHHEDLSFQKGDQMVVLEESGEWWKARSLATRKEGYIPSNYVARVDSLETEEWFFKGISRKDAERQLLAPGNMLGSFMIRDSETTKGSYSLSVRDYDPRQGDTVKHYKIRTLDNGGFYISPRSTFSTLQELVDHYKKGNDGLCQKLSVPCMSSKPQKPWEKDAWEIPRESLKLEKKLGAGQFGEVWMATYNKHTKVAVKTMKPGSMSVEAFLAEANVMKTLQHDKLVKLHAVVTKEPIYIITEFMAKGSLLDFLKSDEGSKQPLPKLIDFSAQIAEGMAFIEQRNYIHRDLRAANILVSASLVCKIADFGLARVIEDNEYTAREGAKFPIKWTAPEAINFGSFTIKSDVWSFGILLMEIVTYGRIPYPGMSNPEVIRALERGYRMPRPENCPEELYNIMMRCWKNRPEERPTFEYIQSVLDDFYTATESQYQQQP

[12] = system: c-Abl (mouse); assay: as above
[13] = system: c-Src; assay: as above
[14] = molecular target: EPHB2 (UniProt P29323); assay: as above
Chain of EPHB2 (P29323 whole entry, looked up): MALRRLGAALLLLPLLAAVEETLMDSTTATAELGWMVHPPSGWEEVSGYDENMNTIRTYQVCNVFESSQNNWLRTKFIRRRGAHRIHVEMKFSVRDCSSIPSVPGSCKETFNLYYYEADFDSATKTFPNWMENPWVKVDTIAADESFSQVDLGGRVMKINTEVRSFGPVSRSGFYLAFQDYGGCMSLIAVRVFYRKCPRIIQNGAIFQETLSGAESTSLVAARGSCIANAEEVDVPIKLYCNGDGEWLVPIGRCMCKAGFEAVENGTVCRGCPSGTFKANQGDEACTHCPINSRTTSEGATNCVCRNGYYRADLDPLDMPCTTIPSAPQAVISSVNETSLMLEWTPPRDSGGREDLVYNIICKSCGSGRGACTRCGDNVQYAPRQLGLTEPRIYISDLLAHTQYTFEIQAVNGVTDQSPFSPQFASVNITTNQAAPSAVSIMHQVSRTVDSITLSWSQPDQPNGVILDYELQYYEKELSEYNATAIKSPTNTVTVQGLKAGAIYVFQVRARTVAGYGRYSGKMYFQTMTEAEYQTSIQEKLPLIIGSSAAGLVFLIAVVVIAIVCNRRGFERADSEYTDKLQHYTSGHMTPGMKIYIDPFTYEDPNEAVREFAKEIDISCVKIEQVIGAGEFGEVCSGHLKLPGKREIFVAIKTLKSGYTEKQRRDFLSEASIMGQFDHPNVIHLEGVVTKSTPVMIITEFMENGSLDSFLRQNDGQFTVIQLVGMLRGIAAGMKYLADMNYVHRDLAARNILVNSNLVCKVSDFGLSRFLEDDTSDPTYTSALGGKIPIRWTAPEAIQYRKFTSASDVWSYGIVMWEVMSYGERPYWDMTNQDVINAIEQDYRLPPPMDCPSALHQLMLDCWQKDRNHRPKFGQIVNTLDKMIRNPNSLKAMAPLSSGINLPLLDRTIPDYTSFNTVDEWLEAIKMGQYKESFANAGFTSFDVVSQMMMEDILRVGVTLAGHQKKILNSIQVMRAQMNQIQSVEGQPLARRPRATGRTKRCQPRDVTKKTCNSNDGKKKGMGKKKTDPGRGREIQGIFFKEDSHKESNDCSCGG

[15] = molecular target: Fyn (UniProt P06241); assay: as above
[16] = molecular target: FGFR1 (UniProt P11362); assay: as above
Chain of FGFR1 (P11362 whole entry, looked up, the tested form may be a part): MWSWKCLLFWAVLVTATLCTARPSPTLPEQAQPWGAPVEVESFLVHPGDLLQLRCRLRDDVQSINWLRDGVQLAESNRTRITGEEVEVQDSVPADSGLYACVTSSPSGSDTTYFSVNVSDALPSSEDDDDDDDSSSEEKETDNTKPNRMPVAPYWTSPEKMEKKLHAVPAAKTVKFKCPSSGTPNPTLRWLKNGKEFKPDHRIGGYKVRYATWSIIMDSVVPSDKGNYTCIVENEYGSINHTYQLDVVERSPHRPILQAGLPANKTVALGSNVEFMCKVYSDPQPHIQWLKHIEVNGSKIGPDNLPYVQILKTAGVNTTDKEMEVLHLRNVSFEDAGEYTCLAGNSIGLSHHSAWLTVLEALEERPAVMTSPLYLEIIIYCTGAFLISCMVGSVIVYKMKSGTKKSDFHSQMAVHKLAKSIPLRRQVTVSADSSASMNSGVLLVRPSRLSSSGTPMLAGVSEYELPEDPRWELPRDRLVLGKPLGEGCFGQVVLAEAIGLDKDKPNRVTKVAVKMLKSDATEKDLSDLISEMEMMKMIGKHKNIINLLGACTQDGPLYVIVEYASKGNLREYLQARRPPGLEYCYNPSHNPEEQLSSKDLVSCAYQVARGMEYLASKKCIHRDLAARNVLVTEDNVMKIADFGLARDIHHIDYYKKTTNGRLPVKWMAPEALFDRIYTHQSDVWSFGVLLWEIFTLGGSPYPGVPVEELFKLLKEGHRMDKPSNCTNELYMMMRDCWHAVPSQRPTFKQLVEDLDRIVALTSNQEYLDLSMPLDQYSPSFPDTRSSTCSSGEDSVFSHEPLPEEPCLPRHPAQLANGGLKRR
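Wherever SH2 binding enrichment of the phosphorylated peptide, bacterial display is given: peptide library displayed on the E. coli surface as eCPX fusions, selected cells deep-sequenced, score is each peptide's frequency after selection divided by its frequency in the input.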
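Wherever phosphorylation enrichment, bacterial display is given: 11-residue human phosphosite peptides and single-mutation variants displayed on the E. coli surface, counted by deep sequencing, each peptide's frequency after selection divided by its frequency in the unselected input library; frequency after pTyr selection over input frequency; kinase dosed for 20-30% of maximal phosphorylation in three min.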

SH2 binding enrichment [1]	SH2 binding enrichment [2]	SH2 binding enrichment [3]	Sequence	phosphorylation enrichment [4]	phosphorylation enrichment [5]	phosphorylation enrichment [6]	phosphorylation enrichment [7]	phosphorylation enrichment [8]	phosphorylation enrichment [9]	phosphorylation enrichment [10]	phosphorylation enrichment [11]	phosphorylation enrichment [12]	phosphorylation enrichment [13]	phosphorylation enrichment [14]	phosphorylation enrichment [15]	phosphorylation enrichment [16]
0.485	0.832	0.722	FPLELYERVRM [PRKCG_Y312_YF]	2.39	0.932	1.94	0.444	1.09	1.28	1.39	1.24	0.804	0.488	0.982	0.629	0.988
0.47	0.718	0.537	DVMDFYKTLRG [NR3C1_Y30]	0.41	0.484	0.404	0.394	0.685	0.728	0.719	0.434	0.571	0.342	0.423	0.451	0.393
0.541	0.735	0.541	KNAEKYAEEDW [HSPA9_Y568_R573W]	0.487	0.776	0.667	0.533	1.21	1.56	1.32	0.52	0.895	0.51	0.727	0.533	0.763
0.373	0.717	0.551	VATRWYRSLEL [CDKL5_Y177_P180L]	0.357	0.473	0.447	0.366	0.576	0.742	0.825	0.432	0.468	0.314	0.368	0.385	0.436
0.93	1.18	0.741	TFRPPYFHRDC [HGD_Y333_N337D_YF]	0.422	2	0.432	0.424	0.685	0.847	0.617	0.454	0.587	0.558	0.431	0.427	0.496
0.658	0.832	0.801	QDKDLYPCPGT [RLF_Y671_R668K]	0.562	0.785	0.701	0.613	0.996	1.18	1.36	0.625	0.726	0.483	0.857	0.652	0.744
0.601	0.925	0.563	HSGIYYKPESL [L2HGDH_Y103]	0.613	4.95	6.97	9.79	2.35	0.984	1.59	6.44	27.1	3.78	6.24	4.78	5.66
0.457	0.813	0.662	AALSAYAAQRP [PTPRN2_Y249]	0.347	0.433	0.299	0.312	0.462	0.491	0.439	0.386	0.377	0.315	0.353	0.305	0.406
0.495	0.801	0.553	GYQPEYGQPAG [SYP_Y278_D277E]	0.487	0.659	0.451	0.467	0.725	0.851	0.662	0.419	0.466	0.443	0.451	0.426	0.401
0.737	0.984	0.916	GMTLSYLFWEP [NDUFS8_Y74_R77W]	3.7	3.63	0.875	1.43	5.21	1.59	1.85	0.629	1.32	0.659	0.737	0.501	4.73
0.397	0.761	0.395	ELTSVYDSRAR [SENP1_Y349]	0.432	0.574	0.35	0.52	0.592	0.624	0.585	1.62	0.557	1.03	0.507	0.697	0.491
0.757	0.884	1.15	HLVLNYGVCFC [JAK2_Y613_V617F]	0.982	1.77	1.67	0.575	1.53	2.32	2.91	1.04	1.29	0.914	2.33	1.11	1.2
5.91	0.746	0.675	ISKKIYDTIHD [CTNNA3_Y614]	0.421	0.357	0.351	0.445	0.582	0.587	0.555	0.742	0.452	0.579	0.516	0.584	0.433
0.538	0.819	0.653	CRIELYRVVES [IGFBP1_Y181]	0.537	0.887	0.989	0.46	1.11	1.29	1.2	0.574	0.759	0.437	0.68	0.476	0.545
0.503	0.938	0.707	NELTFYCCKKD [CD59_Y87_YF]	0.461	0.715	0.514	0.466	1.29	1.28	1.39	0.46	0.808	0.436	0.739	0.452	0.54
0.699	0.708	0.724	QQLDEYQKLLD [LMNA_Y359_E361K]	0.905	1.2	1.27	0.81	1.72	1.85	1.53	0.742	1.03	0.642	1.28	0.724	0.65
0.605	0.993	0.834	RHIEKYVDQGK [IRAK3_Y61]	0.593	0.633	0.577	0.59	0.857	0.833	0.771	0.74	0.783	0.687	0.318	0.533	0.512
